Data reported in patent publication US20160263250A1 (GENERAL HOSPITAL, published 2016).

Experiments:
Exendin-4X12-VT750 = assay: cell-labeling assay, fluorescence plate reader, MIN6 cells
Exendin-4K12-VT680 = assay: in vivo injection into NOD MIP-GFP mice; intravital imaging and fluorescence histology
Exendin-4 = Exendin-4 (UniProt P26349 48-86); assay: blocking on MIN6 cells: Exendin-4 (0-500 nM), then Exendin-4X12-VT750 (10 nM); competitor Exendin-4X12-VT750

Measured: binding result

B1: GLP-1R naturally expressed on mouse insulinoma-derived MIN6 cells and mouse pancreatic beta cells (receptor)
chain: GPRPQGTTVSLSETVQKWREYRRQCQRFLTEAPLLATGLFCNRTFDDYACWPDGPPGSFVNVSCPWYLPWASSVLQGHVYRFCTAEGLWLHKDNSSLPWRDLSECEESKRGERNFPEEQLLSLYIIYTVGYALSFSALVIASAILVGFRHLHCTRNYIHLNLFASFILRALSVFIKDAALKWMYSTAAQQHQWDGLLSYQDSLGCRLVFLLMQYCVAANYYWLLVEGVYLYTLLAFSVFSEQRIFKLYLSIGWGVPLLFVIPWGIVKYLYEDEGCWTRNSNMNYWLIIRLPILFAIGVNFLIFIRVICIVVSKLKANLMCKTDIKCRLAKSTLTLIPLLGTHEVIFAFVMDEHARGTLRFIKLFTELSFTSFQGLMVAILYCFVNNEVQMEFRKCWERWRLEHLNIQRDCSMKPLKCPTSSVSSGATVGSSVYAATCQSSYS
notes: whole, on cells; The species follows from the cell line and the animals; also called GLP-1R (MIN6); GLP-1 receptors in vivo (mouse)
binds: all assays above
